# Biological target: GST-Cdk1/GST-cyclin B1 complex (UniProt P06493 1-297; P14635 1-433)
# Assay: cell-based or functional assay
# Sequence of GST-Cdk1/GST-cyclin B1 complex (P06493 whole entry, chain 1 of 2): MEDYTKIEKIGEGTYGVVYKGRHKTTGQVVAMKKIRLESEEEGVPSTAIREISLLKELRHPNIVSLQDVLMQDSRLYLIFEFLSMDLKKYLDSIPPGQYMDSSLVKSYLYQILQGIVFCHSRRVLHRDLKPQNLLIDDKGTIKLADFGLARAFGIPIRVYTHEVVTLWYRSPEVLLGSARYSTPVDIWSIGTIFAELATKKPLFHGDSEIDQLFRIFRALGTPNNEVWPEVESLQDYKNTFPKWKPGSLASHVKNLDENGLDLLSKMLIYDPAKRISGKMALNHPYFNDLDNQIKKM
# Sequence of GST-Cdk1/GST-cyclin B1 complex (P14635 whole entry, chain 2 of 2): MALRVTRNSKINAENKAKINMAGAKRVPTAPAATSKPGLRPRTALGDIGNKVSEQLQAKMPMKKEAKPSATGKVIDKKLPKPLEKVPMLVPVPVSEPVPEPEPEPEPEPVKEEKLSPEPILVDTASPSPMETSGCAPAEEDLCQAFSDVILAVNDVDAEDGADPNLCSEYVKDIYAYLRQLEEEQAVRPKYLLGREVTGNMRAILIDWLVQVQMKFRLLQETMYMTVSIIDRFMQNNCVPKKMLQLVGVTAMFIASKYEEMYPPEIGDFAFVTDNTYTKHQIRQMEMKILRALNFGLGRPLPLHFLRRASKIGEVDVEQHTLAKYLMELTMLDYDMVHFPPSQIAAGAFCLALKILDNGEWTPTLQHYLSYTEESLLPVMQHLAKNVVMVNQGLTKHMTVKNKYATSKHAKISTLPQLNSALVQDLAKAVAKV
row,Binder,IC50 of inhibition of Cdk1/cyclin B1 kinase activity in vitro (substrate Rb^C)
1,"p21-KID-LH−3 (p21-KID with sub-domain LH shortened by three residues) (domain or fragment, human, UniProt P38936 9-84, looked up) RQNPCGSKACRRLFGPVDSEQLSRDCDALMAGCIQEAWNFDFVTETPLEGDFAWERVRGLGLPKLYLPTGPRR",218 nM
2,"p21-KID-LH+3 (p21-KID with sub-domain LH lengthened by three residues) (domain or fragment, human, UniProt P38936 9-84, looked up) RQNPCGSKACRRLFGPVDSEQLSRDCDALMAGCIQEARERALRWNFDFVTETPLEGDFAWERVRGLGLPKLYLPTGPRR",71 nM

# — PMC3124363 (Nature chemical biology, 2011)
